Experimental findings from publication PMC8673838, “MCPH1 inhibits Condensin II during interphase by regulating its SMC2-Kleisin interface” (eLife, 2021) are described below.

Non-standard residues stand in square brackets, D forms with d. No end group written: not given here. 5‑FAM = 5-carboxyfluorescein label; pS = N[C@@H](COP(=O)(O)O)C(=O)O

Holding throughout (settings): both partners purified
Assay [1] deals with T1, human condensin II pentameric complex (SMC2, SMC4, NCAPH2, NCAPD3, NCAPG2) (human, UniProt O95347 1-1197; Q9NTJ3 1-1288; Q6IBW4 1-605; P42695 1-1498; Q86XI2 1-1143).
T1 construct: SMC2, human, subunit of condensin II; SMC4, human, subunit of condensin II; NCAPH2, human, kleisin subunit of condensin II; NCAPD3 (CAP-D3), human, HAWK subunit of condensin II; NCAPG2 (CAPG2), human, HAWK subunit of condensin II; It says only 'strep-tagged condensin II'; also called pentameric condensin II; strep-tagged condensin II; source: insect cells, purified as previously described (Kong …)
The assay is described as follows: pull-down; strep-tagged full-length MCPH1 and condensin II separately purified, mixed on strep-tactin sepharose; SDS-PAGE, silver stain.

The target of assay [2] is T1, human condensin II pentameric complex …. Nature of the assay: pull-down; strep-tagged condensin complexes (0.1 µM) with at least a 10-fold molecular excess of MBP MCPH1 constructs or MBP, Strep-tactin sepharose, 20 mM Tris pH 7.5, 150 mM NaCl, 10 % glycerol, 1 mM DTT; five washes; Coomassie or silver stain.
For assay [3] the target is unchanged. Nature of the assay: fluorescence polarisation; direct binding; 0.3 µM 5-FAM peptide, 0.625-5 µM condensin II complex; 20 mM Tris pH 7.5, 200 mM NaCl, 1 mM DTT; room temperature.
Assay [4] shares this target. Nature of the assay: fluorescence polarisation; competition; 0.63 µM condensin II and 0.3 µM 5-FAM peptide fixed, unlabelled peptide in two-fold series; 20 mM Tris pH 7.5, 200 mM NaCl, 1 mM DTT; fit for directly competitive binding.
Assay [5] concerns the target T2, condensin II with Q-loop mutation (SMC2 Q147L, SMC4 Q229L) (human, UniProt O95347 1-1197; Q9NTJ3 1-1288; Q6IBW4 1-605; P42695 1-1498; Q86XI2 1-1143, SMC2 Q147L | SMC4 Q229L).
T2 construct: SMC2, human, Q-loop mutant; SMC4, human, Q-loop mutant; NCAPH2, human; NCAPD3, human; NCAPG2, human; also called ATPase hydrolysis deficient Q-loop mutant condensin II; source: insect cells, purified as previously described (Kong et al., 2020); copies: + + + +
The assay is described as follows: SEC; complex of condensin II (wild type or Q-loop mutant) with MCPH1_(1-435)MBP purified by gel filtration on Superose 6 10/300 in 20 mM Tris pH 7.5, 150 mM NaCl, 1 mM DTT, for ATPase assays.

Assay [6] has as its target T1, human condensin II pentameric complex …. Described as above.

T1 sequence (O95347 whole entry, chain 1 of 4): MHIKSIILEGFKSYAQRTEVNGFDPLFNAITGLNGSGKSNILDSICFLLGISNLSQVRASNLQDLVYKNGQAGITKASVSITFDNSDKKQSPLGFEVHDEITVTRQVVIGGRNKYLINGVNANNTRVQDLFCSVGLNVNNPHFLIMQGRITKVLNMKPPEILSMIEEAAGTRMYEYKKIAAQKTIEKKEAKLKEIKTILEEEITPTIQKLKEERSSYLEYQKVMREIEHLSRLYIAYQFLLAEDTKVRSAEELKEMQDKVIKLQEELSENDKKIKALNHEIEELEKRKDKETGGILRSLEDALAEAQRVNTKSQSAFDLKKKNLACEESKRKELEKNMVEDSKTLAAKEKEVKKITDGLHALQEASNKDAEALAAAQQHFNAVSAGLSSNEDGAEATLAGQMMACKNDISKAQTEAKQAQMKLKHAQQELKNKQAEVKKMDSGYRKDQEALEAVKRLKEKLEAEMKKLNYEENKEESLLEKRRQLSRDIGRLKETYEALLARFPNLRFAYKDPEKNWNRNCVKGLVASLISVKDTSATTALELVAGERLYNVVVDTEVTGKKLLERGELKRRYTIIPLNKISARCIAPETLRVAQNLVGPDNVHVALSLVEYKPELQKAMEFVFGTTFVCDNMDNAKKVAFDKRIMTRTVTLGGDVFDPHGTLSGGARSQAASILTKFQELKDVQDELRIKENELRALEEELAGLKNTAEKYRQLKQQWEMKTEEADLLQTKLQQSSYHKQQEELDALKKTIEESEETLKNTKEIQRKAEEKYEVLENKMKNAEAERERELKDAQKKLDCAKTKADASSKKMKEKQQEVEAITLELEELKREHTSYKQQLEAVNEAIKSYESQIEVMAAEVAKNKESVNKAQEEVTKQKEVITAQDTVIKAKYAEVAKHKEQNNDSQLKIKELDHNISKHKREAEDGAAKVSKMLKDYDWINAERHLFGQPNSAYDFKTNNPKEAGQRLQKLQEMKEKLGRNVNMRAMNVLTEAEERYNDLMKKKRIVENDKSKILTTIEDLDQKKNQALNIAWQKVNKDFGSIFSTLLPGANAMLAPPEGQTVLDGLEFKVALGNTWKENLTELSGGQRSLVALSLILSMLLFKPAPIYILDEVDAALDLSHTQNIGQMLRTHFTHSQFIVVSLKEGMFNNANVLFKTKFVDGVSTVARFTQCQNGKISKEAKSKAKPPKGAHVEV
T1 sequence (Q9NTJ3 whole entry, chain 2 of 4): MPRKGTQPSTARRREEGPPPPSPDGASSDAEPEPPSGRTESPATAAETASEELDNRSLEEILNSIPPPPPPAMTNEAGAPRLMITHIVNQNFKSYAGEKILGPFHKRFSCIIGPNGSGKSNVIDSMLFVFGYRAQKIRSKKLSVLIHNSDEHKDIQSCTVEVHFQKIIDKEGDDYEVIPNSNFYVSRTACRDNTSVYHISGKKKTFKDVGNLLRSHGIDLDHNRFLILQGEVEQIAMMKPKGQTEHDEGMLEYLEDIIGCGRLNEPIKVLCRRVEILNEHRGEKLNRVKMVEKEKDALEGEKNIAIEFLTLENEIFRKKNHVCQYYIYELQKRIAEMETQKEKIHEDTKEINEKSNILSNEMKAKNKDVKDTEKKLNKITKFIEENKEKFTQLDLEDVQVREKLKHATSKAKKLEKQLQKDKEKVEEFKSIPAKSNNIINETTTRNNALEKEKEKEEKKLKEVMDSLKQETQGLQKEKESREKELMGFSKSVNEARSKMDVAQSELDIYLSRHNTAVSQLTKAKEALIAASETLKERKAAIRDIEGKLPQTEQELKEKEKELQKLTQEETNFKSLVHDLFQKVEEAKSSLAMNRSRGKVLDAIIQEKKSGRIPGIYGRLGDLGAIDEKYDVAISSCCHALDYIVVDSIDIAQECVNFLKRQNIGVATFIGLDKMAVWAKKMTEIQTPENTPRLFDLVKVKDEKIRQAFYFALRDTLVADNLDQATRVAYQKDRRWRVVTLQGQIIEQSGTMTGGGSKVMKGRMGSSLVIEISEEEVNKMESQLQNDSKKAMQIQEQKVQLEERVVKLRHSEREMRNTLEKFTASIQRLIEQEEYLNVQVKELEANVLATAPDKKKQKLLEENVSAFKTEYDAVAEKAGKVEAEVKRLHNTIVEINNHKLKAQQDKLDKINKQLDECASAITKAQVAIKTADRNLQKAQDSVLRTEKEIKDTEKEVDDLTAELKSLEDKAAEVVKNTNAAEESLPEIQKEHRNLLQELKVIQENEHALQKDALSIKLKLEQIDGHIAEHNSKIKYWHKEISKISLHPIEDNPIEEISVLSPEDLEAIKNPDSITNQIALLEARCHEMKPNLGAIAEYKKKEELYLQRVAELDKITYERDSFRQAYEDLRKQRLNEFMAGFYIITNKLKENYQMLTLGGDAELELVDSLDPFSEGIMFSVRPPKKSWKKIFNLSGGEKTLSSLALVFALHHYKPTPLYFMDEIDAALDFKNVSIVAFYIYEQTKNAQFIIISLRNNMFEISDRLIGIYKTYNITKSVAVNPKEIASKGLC
T1 sequence (Q6IBW4 whole entry, chain 3 of 4): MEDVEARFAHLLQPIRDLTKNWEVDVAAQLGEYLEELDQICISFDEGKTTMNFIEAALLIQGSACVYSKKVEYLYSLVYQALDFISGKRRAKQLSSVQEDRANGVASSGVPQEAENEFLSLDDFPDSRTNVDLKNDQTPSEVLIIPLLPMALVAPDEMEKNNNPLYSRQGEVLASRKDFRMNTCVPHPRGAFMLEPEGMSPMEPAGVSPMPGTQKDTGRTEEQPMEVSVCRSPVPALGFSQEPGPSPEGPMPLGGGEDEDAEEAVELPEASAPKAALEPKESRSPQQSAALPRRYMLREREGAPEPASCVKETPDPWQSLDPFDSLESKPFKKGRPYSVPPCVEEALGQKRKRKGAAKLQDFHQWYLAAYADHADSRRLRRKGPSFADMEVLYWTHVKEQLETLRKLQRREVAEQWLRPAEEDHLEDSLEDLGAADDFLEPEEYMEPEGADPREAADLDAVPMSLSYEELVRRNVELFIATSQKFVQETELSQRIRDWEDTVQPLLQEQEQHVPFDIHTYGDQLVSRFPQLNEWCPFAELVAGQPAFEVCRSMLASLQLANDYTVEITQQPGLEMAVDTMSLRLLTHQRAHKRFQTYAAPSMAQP
T1 sequence (P42695 whole entry, chain 4 of 4): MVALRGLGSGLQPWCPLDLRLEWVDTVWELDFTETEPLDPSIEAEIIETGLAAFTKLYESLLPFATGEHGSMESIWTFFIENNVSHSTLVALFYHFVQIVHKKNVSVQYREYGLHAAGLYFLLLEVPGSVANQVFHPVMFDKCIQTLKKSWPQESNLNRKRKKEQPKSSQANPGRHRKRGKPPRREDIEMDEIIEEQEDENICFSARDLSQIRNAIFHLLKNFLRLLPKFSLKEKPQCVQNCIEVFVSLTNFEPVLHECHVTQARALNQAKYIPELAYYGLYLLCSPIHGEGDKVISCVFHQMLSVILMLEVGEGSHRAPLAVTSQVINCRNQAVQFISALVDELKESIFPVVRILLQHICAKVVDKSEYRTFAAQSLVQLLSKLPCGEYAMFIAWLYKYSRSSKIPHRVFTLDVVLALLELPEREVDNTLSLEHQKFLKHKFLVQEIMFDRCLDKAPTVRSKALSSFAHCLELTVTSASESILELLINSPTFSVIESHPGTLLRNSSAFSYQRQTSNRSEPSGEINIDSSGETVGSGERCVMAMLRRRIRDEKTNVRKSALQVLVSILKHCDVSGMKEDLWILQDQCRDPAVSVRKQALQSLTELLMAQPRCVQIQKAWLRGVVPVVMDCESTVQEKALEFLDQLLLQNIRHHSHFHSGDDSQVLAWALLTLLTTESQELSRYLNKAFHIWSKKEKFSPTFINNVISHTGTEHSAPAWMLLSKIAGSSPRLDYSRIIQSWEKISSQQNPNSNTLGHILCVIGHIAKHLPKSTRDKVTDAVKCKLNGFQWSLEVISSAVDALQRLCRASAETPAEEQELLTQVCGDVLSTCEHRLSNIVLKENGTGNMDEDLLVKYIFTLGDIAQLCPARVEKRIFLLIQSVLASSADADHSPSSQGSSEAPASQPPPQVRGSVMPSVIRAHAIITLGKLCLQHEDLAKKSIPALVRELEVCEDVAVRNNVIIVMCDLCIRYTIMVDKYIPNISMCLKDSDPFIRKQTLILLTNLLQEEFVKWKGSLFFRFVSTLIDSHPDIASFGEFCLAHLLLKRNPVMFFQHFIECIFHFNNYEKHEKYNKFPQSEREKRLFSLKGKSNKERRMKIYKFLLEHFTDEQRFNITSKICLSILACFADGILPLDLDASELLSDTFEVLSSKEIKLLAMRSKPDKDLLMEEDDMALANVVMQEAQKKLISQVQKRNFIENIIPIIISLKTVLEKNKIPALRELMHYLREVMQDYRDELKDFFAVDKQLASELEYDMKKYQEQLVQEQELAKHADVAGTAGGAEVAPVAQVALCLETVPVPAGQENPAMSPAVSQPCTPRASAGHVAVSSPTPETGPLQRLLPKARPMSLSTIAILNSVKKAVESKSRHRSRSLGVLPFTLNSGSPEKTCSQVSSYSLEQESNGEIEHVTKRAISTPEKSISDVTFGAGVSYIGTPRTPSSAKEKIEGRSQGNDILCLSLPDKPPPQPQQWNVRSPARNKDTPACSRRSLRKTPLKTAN
T2 sequence (O95347 whole entry Q147L, chain 1 of 4): as the sequence (O95347 whole entry, chain 1 of 4) above, with Q147L counted along it
T2 sequence (Q9NTJ3 whole entry Q229L, chain 2 of 4): as the sequence (Q9NTJ3 whole entry, chain 2 of 4) above, with Q229L counted along it
T2 sequence (Q6IBW4 whole entry, stated change not applied, chain 3 of 4): as the sequence (Q6IBW4 whole entry, chain 3 of 4) above
T2 sequence (P42695 whole entry, stated change not applied, chain 4 of 4): as the sequence (P42695 whole entry, chain 4 of 4) above

B1: strep-tagged full-length human MCPH1 (natural protein, UniProt Q8NEM0 1-835, looked up)
chain: MAAPILKDVVAYVEVWSSNGTENYSKTFTTQLVDMGAKVSKTFNKQVTHVIFKDGYQSTWDKAQKRGVKLVSVLWVEKCRTAGAHIDESLFPAANMNEHLSSLIKKKRKCMQPKDFNFKTPENDKRFQKKFEKMAKELQRQKTNLDDDVPILLFESNGSLIYTPTIEINSRHHSAMEKRLQEMKEKRENLSPTSSQMIQQSHDNPSNSLCEAPLNISRDTLCSDEYFAGGLHSSFDDLCGNSGCGNQERKLEGSINDIKSDVCISSLVLKANNIHSSPSFTHLDKSSPQKFLSNLSKEEINLQRNIAGKVVTPDQKQAAGMSQETFEEKYRLSPTLSSTKGHLLIHSRPRSSSVKRKRVSHGSHSPPKEKCKRKRSTRRSIMPRLQLCRSEDRLQHVAGPALEALSCGESSYDDYFSPDNLKERYSENLPPESQLPSSPAQLSCRSLSKKERTSIFEMSDFSCVGKKTRTVDITNFTAKTISSPRKTGNGEGRATSSCVTSAPEEALRCCRQAGKEDACPEGNGFSYTIEDPALPKGHDDDLTPLEGSLEEMKEAVGLKSTQNKGTTSKISNSSEGEAQSEHEPCFIVDCNMETSTEEKENLPGGYSGSVKNRPTRHDVLDDSCDGFKDLIKPHEELKKSGRGKKPTRTLVMTSMPSEKQNVVIQVVDKLKGFSIAPDVCETTTHVLSGKPLRTLNVLLGIARGCWVLSYDWVLWSLELGHWISEEPFELSHHFPAAPLCRSECHLSAGPYRGTLFADQPAMFVSPASSPPVAKLCELVHLCGGRVSQVPRQASIVIGPYSGKKKATVKYLSEKWVLDSITQHKVCAPENYLLSQ
notes: MCPH1, human, full length; pLIB MCPH1 from Genscript; also called full-length MCPH1; microcephalin; source: High Five insect cells (baculovirus), purified (StrepTrap, SEC)
Regarding B1, in assay [1], the binding result is reported as “binds”.

B2: MBP-MCPH1_(196-435) (domain or fragment, human, UniProt Q8NEM0 196-435, looked up)
chain: QMIQQSHDNPSNSLCEAPLNISRDTLCSDEYFAGGLHSSFDDLCGNSGCGNQERKLEGSINDIKSDVCISSLVLKANNIHSSPSFTHLDKSSPQKFLSNLSKEEINLQRNIAGKVVTPDQKQAAGMSQETFEEKYRLSPTLSSTKGHLLIHSRPRSSSVKRKRVSHGSHSPPKEKCKRKRSTRRSIMPRLQLCRSEDRLQHVAGPALEALSCGESSYDDYFSPDNLKERYSENLPPESQL
notes: source: E. coli BL21 (DE3) pLysS, purified (Ni-NTA, ion exchange or heparin); not shown: MBP, N-terminal, kept
As to B2, in assay [2], the binding result was “binds”.

B3: 5-FAM-labelled MCPH1_(407-424) peptide (peptide)
peptide: {5‑FAM}-CGESSYDDYFSPDNLKER
notes: also called 5FAM-MCPH1; source: synthetic peptide (Genscript)
Molecule B3 displayed a Kd in assay [3] of 0.64 µM.

B4: MBP-MCPH1_(348-469) (domain or fragment, human, UniProt Q8NEM0 348-469, looked up)
chain: RPRSSSVKRKRVSHGSHSPPKEKCKRKRSTRRSIMPRLQLCRSEDRLQHVAGPALEALSCGESSYDDYFSPDNLKERYSENLPPESQLPSSPAQLSCRSLSKKERTSIFEMSDFSCVGKKTR
notes: MCPH1, human, residues 348-469; This construct is named in the results only; also called His-MBP-MCPH1 348-469; source: E. coli, purified; not shown: MBP, N-terminal, kept
In the case of B4, the binding result in assay [2] is “binds”.

CGESSYDDYFSPDNLKER (source: synthetic peptide (Genscript)) [MCPH1_(407-424) peptide, wild-type, unlabelled] showed a Kd in assay [4] of 5.3 ± 1 µM.

B5: MCPH1_(407-424) peptide phosphorylated at serine 417 (peptide)
peptide: CGESSYDDYF[pS]PDNLKER
notes: S417 is phosphoserine; also called MCPH1pS417; source: synthetic peptide (Genscript)
As for B5, binding in assay [4] was characterised by a dissociation constant (Kd) of 53 ± 8 µM.

B6: MCPH1_(1-435)MBP after removal of the N-terminal 6xHis tag (domain or fragment, human, UniProt Q8NEM0 1-435, looked up)
chain: MAAPILKDVVAYVEVWSSNGTENYSKTFTTQLVDMGAKVSKTFNKQVTHVIFKDGYQSTWDKAQKRGVKLVSVLWVEKCRTAGAHIDESLFPAANMNEHLSSLIKKKRKCMQPKDFNFKTPENDKRFQKKFEKMAKELQRQKTNLDDDVPILLFESNGSLIYTPTIEINSRHHSAMEKRLQEMKEKRENLSPTSSQMIQQSHDNPSNSLCEAPLNISRDTLCSDEYFAGGLHSSFDDLCGNSGCGNQERKLEGSINDIKSDVCISSLVLKANNIHSSPSFTHLDKSSPQKFLSNLSKEEINLQRNIAGKVVTPDQKQAAGMSQETFEEKYRLSPTLSSTKGHLLIHSRPRSSSVKRKRVSHGSHSPPKEKCKRKRSTRRSIMPRLQLCRSEDRLQHVAGPALEALSCGESSYDDYFSPDNLKERYSENLPPESQL
notes: Same construct as m11, His tag cut off by TEV before gel filtration with condensin II; source: E. coli BL21 (DE3) pLysS, purified (Ni-NTA, ion exchange or heparin, SEC), treated with TEV protease; not shown: His6, N-terminal, cleaved; MBP, C-terminal, kept
On to B6, for which the binding result in assay [5] and in assay [6] was “binds” in each case.

B7: MBP-MCPH1_(1-435) (domain or fragment, human, UniProt Q8NEM0 1-435, looked up)
chain: B6 chain
notes: as for B2
Take B7: the binding result in assay [2] is given as “binds”.
